Test results as given in patent publication US20240327510A1, “DRUG FOR PREVENTING, ALLEVIATING OR TREATING MUCOSAL ADHESION AND USE THEREOF” (SHANGHAI SYNVIDA BIOTECHNOLOGY CO. LTD., priority 2021, published 2024).

Columns and labels:
[1] = system: subcutaneous mucosal fibroblasts; test: TGFβ activated mucosal fibroblasts treated with antibody: hydroxyproline in supernatant and QPCR of Col7a1, ACTA2; assay type: cell-based, humanized Pear1 mice; conditions: 1 μg/mL antibody, 10 ng/mL TGFβ, 48 hours; versus control group
Experimental: After the treatment of starvation in cultured mucosal or subcutaneous derived fibroblasts for 12 hours, 1 μg/mL anti-human Pear1 monoclonal antibody (including LF2 antibody or hLF105 antibody) was added separately to treat the cells. After 30 minutes, 10 ng/mL TGFβ was added to treat the cells for 48 hours, then the cell supernatant was collected. The content of hydroxyproline was detected using the hydroxyproline detection kit of Nanjing Jiancheng Biology Co., Ltd. according to the instructions.
Mucosal fibroblasts in Method 5 were collected. Total mRNA was extracted by Trizol method (Invitrogen, Carlsbad, CA) according to standard protocols. Complementary DNA was synthesized using reverse transcriptase (Takara). ABI7000 Real-time PCR instrument (Life Technologies) was used to detect gene expression and the PCR primer sequences are shown in Table 5. The 18sRNA gene was used as an internal reference.
To further investigate the role of targeting Pear1 in inhibiting mucosal fibroblast activation, subcutaneous mucosal fibroblasts were isolated from humanized Pear1 mice and cultured in vitro. TGFβ activated fibroblasts were treated with anti-human Pear1 monoclonal antibodies (including LF2 or hLF105) for 48 hours, and the supernatants were collected to detect the content of hydroxyproline. The cells were collected for QPCR to detect the expression levels of extracellular matrix proteins such as collagen 7a1 (Col 7a1) and smooth muscle actin a2 (ACTA2) to characterize fibroblast activation and collagen synthesis.

[2] = system: humanized Pear1 mice; test: Peritoneal adhesion model, determination of hydroxyproline in tissues; assay type: in vivo; conditions: versus control group
From the text: (§1) The model was made in humanized mice within 3 cm from the caecums of vermiform in peritoneal cavity, following the methods in the literature (Zhiliang Zhang, et al., Characteristics of genesis and development of peritoneal adhesion by different causes: experiment with rats, Chinese Journal of Medicine, 2005). The mice were divided into 3 groups. groups, with 20 mice in each group: A, control group with normal saline; B, prophylactic intraperitoneal injection of anti-human Pear1 monoclonal antibody (including LF2 or hLF105 antibody) 0.5 mg/kg, once a week; C, prophylactic intraperitoneal injection of anti-human Pear1 monoclonal antibody 1 mg/kg, once a week. After the mice were euthanized at 2 time points of 2 weeks and 4 weeks, an inverted “U”-shaped incision was selected to enter the abdomen, avoiding the original surgical incision. […] And the degree of adhesion in the peritoneal adhesion model was evaluated.
(§2) For fibroblast-specific Pear1 knockout mice, a peritoneal adhesion model was used to form a sham operation on the mice. The model preparation and animal grouping were as described above.
The formation of tissue adhesion depends on the synthesis of collagen and hydroxyproline is the precursor of collagen synthesis. […]

[3] = system: humanized Pear1 mice; test: Peritoneal adhesion model, indicators related to adhesion (immunohistochemistry or RT-PCR); assay type: in vivo; conditions: versus control group
From the text: as §1, §2
Immunohistochemistry or RT-PCR was used to measure some indicators related to adhesion formation to reflect the severity of adhesion, such as: fibrinogen (FIB), α-smooth actin (α-SMA), MMPs/TIMPs, transforming growth factor (TGF-β1), vascular endothelial growth factor (VEGF).

[4] = system: humanized Pear1 mice; test: Subcutaneous mucosal adhesion model, HE and Masson staining at wounded site; assay type: in vivo; conditions: 5 micrograms at the wounded site every 7 days; 14th day; versus control group
From the text: Mice were anesthetized by intraperitoneal injection of pentobarbital sodium. The hair is depilated and sterilized, and the skin is excised. A thin layer of bonding agent was applied to one side of the silicone plate to fix the wound concentrically with a clamping board. Each clamping board was sutured at regular intervals with eight stitches to secure it to the intact tissue around the wound, preventing contraction of the wound edges. Sterile dressings were cut into circular shapes and attached to the silicone board for protecting the wound, preventing the animals from scratching or chewing. The anti-human Pear1 monoclonal antibody was […].
Mice were anesthetized using isoflurane, maintaining a flow of 2% isoflurane. The sterile dressings on the silicone board were peeled off (or not peeled off). Pictures were taken at the wounded sites next to the fixed position and scale bar. If necessary, sterile dressings can be reapplied. Image J was used to process the photos. The wounded area can be calculated according to the circled area by the scale.
[…] were fixed in 4% paraformaldehyde for 48 hours, after paraffin embedding, a semi-automatic rotary slicing machine (Leica; rm2235 and cm1950) was used for slicing, dewaxing is carried out at room temperature, gradient ethanol is used for rehydration, HE and Masson staining were then performed.
Subsequently, in order to detect the role of targeting Pear1 in inhibiting adhesion formation in vivo, the inventors constructed an adhesion model in humanized Pear1 mice, and at the same time instilled anti-human Pear1 monoclonal antibodies (including LF2 or hLF105) each at a dose of 5 micrograms at the wounded site, with once administration every 7 days. On the 14th day, the subcutaneous mucosal tissue at the wounded site was removed, stained with HE and Masson, and photographed under a microscope. The thickness of the subcutaneous mucosa and skin and the area of collagen were counted by Image J software for indicating the formation of adhesions.

[5] = system: humanized Pear1 mice; test: Peritoneal adhesion model, BhatiaDS score; assay type: in vivo; parameters: key to BhatiaDS score: grade 0: no adhesion; grade I: adhesive area of the area treated in the caecums of vermiform/total area of the treated area<50%, easy for blunt separation; grade II: above-mentioned area ratio≥50%, easy for blunt dissection; Grade III: Regardless of the size of the adhesive area, as long as the adhesion is difficult to separate, blunt separation can still be performed, but the intestinal wall is obviously damaged after separation; Grade IV: Regardless of the size of the adhesive area, as long as the adhesion is firm and can no longer be bluntly separated, required sharp separation
From the text: The model was made in humanized mice within 3 cm from the caecums of vermiform in peritoneal cavity, following the methods in the literature (Zhiliang Zhang, et al., Characteristics of genesis and development of peritoneal adhesion by different causes: experiment with rats, Chinese Journal of Medicine, 2005). The mice were divided into 3 groups. groups, with 20 mice in each group: A, control group with normal saline; B, prophylactic intraperitoneal injection of anti-human Pear1 monoclonal antibody (including LF2 or hLF105 antibody) 0.5 mg/kg, once a week; C, prophylactic intraperitoneal injection of anti-human Pear1 monoclonal antibody 1 mg/kg, once a week. After the mice were euthanized at 2 time points of 2 weeks and 4 weeks, an inverted “U”-shaped incision was selected to enter the abdomen, avoiding the original surgical incision. […] And the degree of adhesion in the peritoneal adhesion model was evaluated. […]
According to the scoring standard of BhatiaDS, grade 0: no adhesion; grade I: adhesive area of the area treated in the caecums of vermiform/total area of the treated area<50%, easy for blunt separation; grade II: above-mentioned area ratio≥50%, easy for blunt dissection; Grade III: Regardless of the size of the adhesive area, as long as the adhesion is difficult to separate, blunt separation can still be performed, but the intestinal wall is obviously damaged after separation; Grade IV: Regardless of the size of the adhesive area, as long as the adhesion is firm and can no longer be bluntly separated, required sharp separation. Each mouse was scored by 3 people respectively, and the average value was taken as the score of adhesion in this sample.

[6] = 0.5 mg/kg intraperitoneal once a week, 2 weeks (n = 8)
[7] = 1.0 mg/kg intraperitoneal once a week, 2 weeks (n = 8)
[8] = 1.0 mg/kg intraperitoneal once a week, 4 weeks (n = 8)
[9] = 0.5 mg/kg intraperitoneal once a week, 4 weeks (n = 8)

Row | Molecule | ability to synthesize extracellular matrix [1] | activation of fibroblasts [1] | hydroxyproline content in tissues [2] | indicators related to adhesion (FIB, α-SMA, MMPs/TIMPs, TGF-β1, VEGF) [3] | collagen deposition in the subcutaneous mucosa at wounded sites (Masson staining) [4] | dermal thickness at wounded sites (HE staining) [4] | fibroblasts at wounded sites (HE staining) [4] | BhatiaDS score [5, 6] | BhatiaDS score [5, 7] | BhatiaDS score [5, 8] | BhatiaDS score compared with the control group ([5]; versus control group, especially in the high-dose group (1.0 mg/kg)) | BhatiaDS score [5, 9]
1 | LF2: anti-human Pear1 monoclonal antibody; VH SEQ ID NO: 1, VL SEQ ID NO: 16 (antibody, V domains shown) VH: EVQLQQSGPELVKPGASMKISCKASGYSFTGYPMNWVRQSHVKNLEWIGVINPYNGGTSYNQKFKGKATLTVDKSSSTAYIELLSLTSDDSAVYYCARGGVRPFAYWGQGTLVTVSA VL: DIQMTQTSSSFSVSLGDRVTITCKASEDIYNRLAWYQQKPGNAPRLLISGATSLETGVPSRFSGSGSGNDYTLSITSLQTEDVATYYCQQYWSTPTFGAGTKLELQ | inhibited | inhibited | significantly lower | significantly lower | less collagen deposition | smaller dermal thickness | fewer fibroblasts | I (grade I: adhesive area of the area treated in the caecums of vermiform/total area of the treated area<50%, easy for blunt separation) | III | I (grade I: adhesive area of the area treated in the caecums of vermiform/total area of the treated area<50%, easy for blunt separation) | significantly lower | 
2 | hLF-N55Q: humanized anti-human Pear1 antibody; VH SEQ ID NO: 13, VL SEQ ID NO: 22 (antibody, V domains shown) VH: QVQLVQSGAEVKKPGASVKVSCKASGYTFTGYPMNWVRQAPGKRLEWMGVINPYQGGTSYNQKFKGRATLTVDTSASTAYMELSSLRSEDTAVYYCARGGVRPFAYWGQGTLVTVSS VL: DIQMTQSPSSLSASVGDRVTITCKASEDIYNRLAWYQQKPGKAPKLLISGATSLETGVPSRFSGSGSGNDFTLTISSLQPEDFATYYCQQYWSTPTFGQGTKLEIK |  |  |  |  |  |  |  | II (grade II: above-mentioned area ratio≥50%, easy for blunt dissection) | III | I (grade I: adhesive area of the area treated in the caecums of vermiform/total area of the treated area<50%, easy for blunt separation) |  | I (grade I: adhesive area of the area treated in the caecums of vermiform/total area of the treated area<50%, easy for blunt separation)
3 | hLF110: humanized anti-human Pear1 antibody; VH SEQ ID NO: 9, VL SEQ ID NO: 23 (antibody, V domains shown) VH: QVQLVQSGAEVKKPGASVKVSCKASGYTFTGYPMNWVRQAPGQNLEWMGVINPYNGGTSYNQKFKGRVTLTVDKSASTAYMELSSLRSEDTAVYYCARGGVRPFAYWGQGTLVTVSS VL: DIQMTQSPSSLSASVGDRVTITCKASEDIYNRLAWYQQKPGNAPKLLISGATSLETGVPSRFSGSGSGNDFTLTISSLQPEDFATYYCQQYWSTPTFGQGTKLEIK |  |  |  |  |  |  |  | I (grade I: adhesive area of the area treated in the caecums of vermiform/total area of the treated area<50%, easy for blunt separation) | III | I (grade I: adhesive area of the area treated in the caecums of vermiform/total area of the treated area<50%, easy for blunt separation) |  | 0
4 | hLF107: humanized anti-human Pear1 antibody; VH SEQ ID NO: 8, VL SEQ ID NO: 24 (antibody, V domains shown) VH: QVQLVQSGAEVKKPGASVKVSCKASGYTFTGYPMNWVRQAPGKRLEWMGVINPYNGGTSYNQKFKGRATLTVDTSASTAYMELSSLRSEDTAVYYCARGGVRPFAYWGQGTLVTVSS VL: DIQMTQSPSSLSASVGDRVTITCKASEDIYNRLAWYQQKPGKAPKLLISGATSLETGVPSRFSGSGSGNDYTLTISSLQPEDFATYYCQQYWSTPTFGQGTKLEIK |  |  |  |  |  |  |  | II (grade II: above-mentioned area ratio≥50%, easy for blunt dissection) | IV | II (grade II: above-mentioned area ratio≥50%, easy for blunt dissection) |  | I (grade I: adhesive area of the area treated in the caecums of vermiform/total area of the treated area<50%, easy for blunt separation)
